Experimental data from patent publication US20190010249A1 (Ablynx, published 2019).

Columns and labels:
[1] = target: T1, human multimeric vWF (purified vWF HaemateP) (human, UniProt P04275 764-2813); test: Gyrolab solution affinity, 5 pM caplacizumab pre-incubated with vWF dilution series; liquid formulation
T1 construct: vWF purified from HaemateP by size-exclusion chromatography; also called multimeric target vWF; purified HaemateP
Description: (§1) This assay measures the inhibition of ristocetin-induced binding of von Willebrand Factor (vWF) to bound platelet by caplacizumab. [0395] c) The RICO assay is used as pharmacodynamics marker for the pharmacological activity of caplacizumab. The assay measures the rate and degree to which human lyophilized platelets form aggregates after the addition of the antibiotic ristocetin, which mimics shear-induced activation of vWF. [0396] d) Gyrolab-based assay analyses the kinetic interactions of caplacizumab with its multimeric target vWF and determines the affinity constant of caplacizumab to human multimeric vWF. Briefly, affinity determination on the Gyroloab platform was established as follows: Gyrolab Bioaffy 1000 CDs were used. As capture tool, 3000 nM in-house biotinylated purified vWF (purified HaemateP using size-exclusion chromatography) was applied on the columns which were pre-packed with streptavidin-coated beads. Filter-sterilized D-PBS containing 0.01% Tween-20 was used for dilution of the capture tool. […] Free caplacizumab was detected with 50 nM AlexaFluor647-labeled anti-caplacizumab monoclonal antibody diluted in Rexxip F buffer (commercially available detection buffer). […]

[2] = target: T1, human multimeric vWF (purified vWF …); test: Gyrolab solution affinity, 5 pM caplacizumab pre-incubated with vWF dilution series; lyophilized formulation
Description: as §1

B1: 12A02H1-3a-12A02H1 (ALX-0081) (VHH)
chain: EVQLVESGGGLVQPGGSLRLSCAASGRTFSYNPMGWFRQAPGKGRELVAAISRTGGSTYYPDSVEGRFTISRDNAKRMVYLQMNSLRAEDTAVYYCAAAGVRAEDGRVRTLPSEYTFWGQGTQVTVSSAAAEVQLVESGGGLVQPGGSLRLSCAASGRTFSYNPMGWFRQAPGKGRELVAAISRTGGSTYYPDSVEGRFTISRDNAKRMVYLQMNSLRAEDTAVYYCAAAGVRAEDGRVRTLPSEYTFWGQGTQVTVSS
notes: Bivalent Nanobody: a single chain of two 12A02H1 domains joined by an AAA linker; It was tested as samples from different formulations and storage conditions; also called caplacizumab; anti-vWF Nanobody caplacizumab
Kd [1]: 6.84 pM | Kd [2]: 4.46 pM
